Experimental data from patent publication US20070180545A1.
“And” between values parts separate entries of the source, which are not always exact repeats. Equal entries are not always repeated.

Legend:
[1] = molecular target: TAT-031 as present on the surface of human tumor cell lines (PC3, H1299, HL-60) (human) (UniProt P08195); assay: flow cytometry on PC-3 human tumor cells
[2] = molecular target: TAT-031 as present on the surface of human tumor cell lines (PC3, H1299, HL-60) (human) (UniProt P08195); assay: flow cytometry on H1299 human tumor cells
[3] = molecular target: TAT-031 as present on the surface of human tumor cell lines (PC3, H1299, HL-60) (human) (UniProt P08195); assay: flow cytometry on HL-60 human tumor cells
[4] = molecular target: TAT-031 (full-length clone expressed from phCMV1-TAT-031 on stably transfected cells) (human) (UniProt P08195); assay: flow cytometry on BaF3 cells stably transfected with TAT-031 (SLC3A2)

- relative geometric mean fluorescence (relative geometric mean fluorescence) [1]: 153 and 98.6 and 86
- relative geometric mean fluorescence (relative geometric mean fluorescence) [2]: 527 and 419 and 389
- relative geometric mean fluorescence (relative geometric mean fluorescence) [3]: 118 and 257 and 205
- relative geometric mean fluorescence (relative geometric mean fluorescence) [4]: 165 and 102
Substance: Mouse monoclonal antibody 44D7 (Abcam, Cat#AB23495)
